Test results: the supplement of paper PMC9112550, “Optimization of the antimicrobial peptide Bac7 by deep mutational scanning” (BMC Biology, 2022)

These sequences were tested on Escherichia coli TOP10 (assay: shrunken log2 fold change of peptide-encoding DNA abundance (4.5 h post-induction vs induction); higher = less antimicrobial activity (less host growth inhibition)). Details: time post-induction: 4.5 h; library: site-saturation at positions 5, 18, 19, 20.
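Also: peptides expressed intracellularly from a pBAD plasmid library in pooled LB shake-flask culture, induced with 0.3% L-arabinose, DNA abundance read by NGS, three biological replicates, DESeq2 with apeglm shrinkage.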

Row | Sequence | shrunken log2 fold change
1 | RRIRDRPPRLPRPRPRPARPPRP | 0.569
2 | RRIRCRPPRLPRPRPRPSYYPRP | -0.794
3 | RRIRDRPPRLPRPRPRPMVEPRP | 0.465
4 | RRIRRRPPRLPRPRPRPGSKPRP | -0.0919
5 | RRIRSRPPRLPRPRPRPKRHPRP | 0.169
6 | RRIRYRPPRLPRPRPRPNSSPRP | 0.0291
7 | RRIRTRPPRLPRPRPRPDGLPRP | 0.0665
8 | RRIRVRPPRLPRPRPRPCQGPRP | -0.226
9 | RRIRTRPPRLPRPRPRPMWFPRP | 0.253
10 | RRIRRRPPRLPRPRPRPLEEPRP | 0.597
11 | RRIRNRPPRLPRPRPRPPFPPRP | 0.309
12 | RRIRVRPPRLPRPRPRPNTGPRP | -0.112
13 | RRIRKRPPRLPRPRPRPEHVPRP | 0.0142
14 | RRIRVRPPRLPRPRPRPWLDPRP | 0.183
15 | RRIRMRPPRLPRPRPRPHRFPRP | -0.0727
16 | RRIRYRPPRLPRPRPRPVWPPRP | 9.23e-05
17 | RRIRKRPPRLPRPRPRPCPLPRP | -0.24
18 | RRIRQRPPRLPRPRPRPSIGPRP | -0.268
19 | RRIRVRPPRLPRPRPRPCQQPRP | 0.00938
20 | RRIRRRPPRLPRPRPRPNMKPRP | 0.069
21 | RRIRRRPPRLPRPRPRPSSPPRP | 0.00935
22 | RRIRSRPPRLPRPRPRPDSYPRP | -0.221
23 | RRIRSRPPRLPRPRPRPWTKPRP | -0.137
24 | RRIRYRPPRLPRPRPRPIQSPRP | -0.00206
25 | RRIRVRPPRLPRPRPRPLLMPRP | -0.325

Row | Sequence | shrunken log2 fold change
26 | RRIRDRPPRLPRPRPRPNLAPRP | -0.0121
27 | RRIRTRPPRLPRPRPRPEMPPRP | -0.0682
28 | RRIRLRPPRLPRPRPRPITAPRP | -0.0526
29 | RRIRLRPPRLPRPRPRPEKPPRP | 0.148
30 | RRIRGRPPRLPRPRPRPQPMPRP | 0.412
31 | RRIRARPPRLPRPRPRPLFKPRP | 0.117
32 | RRIRMRPPRLPRPRPRPEKTPRP | -0.0246
33 | RRIRMRPPRLPRPRPRPQLYPRP | 0.284
34 | RRIRSRPPRLPRPRPRPICIPRP | -0.494
35 | RRIRKRPPRLPRPRPRPYGMPRP | -0.284
36 | RRIRMRPPRLPRPRPRPGYFPRP | 0.0909
37 | RRIRKRPPRLPRPRPRPAFTPRP | 0.021
38 | RRIRMRPPRLPRPRPRPIHKPRP | 0.0536
39 | RRIRLRPPRLPRPRPRPRQDPRP | 0.152
40 | RRIRWRPPRLPRPRPRPIDCPRP | 0.0353
41 | RRIRKRPPRLPRPRPRPKHWPRP | 0.162
42 | RRIRYRPPRLPRPRPRPLGAPRP | -0.103
43 | RRIRRRPPRLPRPRPRPFPIPRP | 0.199
44 | RRIRKRPPRLPRPRPRPDKEPRP | -0.2
45 | RRIRPRPPRLPRPRPRPFQYPRP | -0.179
46 | RRIRMRPPRLPRPRPRPSLDPRP | 0.663
47 | RRIRCRPPRLPRPRPRPYNTPRP | -0.91
48 | RRIRYRPPRLPRPRPRPGTNPRP | -0.163
49 | RRIRERPPRLPRPRPRPNAVPRP | -0.407
50 | RRIRMRPPRLPRPRPRPTPWPRP | 0.844

Row | Sequence | shrunken log2 fold change
51 | RRIRDRPPRLPRPRPRPVPGPRP | 0.214
52 | RRIRKRPPRLPRPRPRPPVIPRP | 0.063
53 | RRIRCRPPRLPRPRPRPYQAPRP | -1.11
54 | RRIRGRPPRLPRPRPRPDKPPRP | 0.415
55 | RRIRHRPPRLPRPRPRPNKEPRP | 0.000399
56 | RRIRVRPPRLPRPRPRPPICPRP | -0.131
57 | RRIRGRPPRLPRPRPRPECNPRP | 1.95
58 | RRIRVRPPRLPRPRPRPMQKPRP | 0.533
59 | RRIRLRPPRLPRPRPRPDKRPRP | -0.175
60 | RRIRQRPPRLPRPRPRPIWRPRP | -0.068
61 | RRIRFRPPRLPRPRPRPWLVPRP | -0.135
62 | RRIRHRPPRLPRPRPRPGEVPRP | 0.0396
63 | RRIRERPPRLPRPRPRPVEHPRP | -0.0102
64 | RRIRNRPPRLPRPRPRPGPGPRP | 0.274
65 | RRIRHRPPRLPRPRPRPSGQPRP | -0.17
66 | RRIRKRPPRLPRPRPRPASNPRP | 0.147
67 | RRIRFRPPRLPRPRPRPFRLPRP | -0.197
68 | RRIRNRPPRLPRPRPRPMKWPRP | 0.0456
69 | RRIRMRPPRLPRPRPRPKYSPRP | -0.326
70 | RRIRWRPPRLPRPRPRPHNKPRP | -0.39
71 | RRIRRRPPRLPRPRPRPWKWPRP | -0.00244
72 | RRIRVRPPRLPRPRPRPQDVPRP | -0.033
73 | RRIRERPPRLPRPRPRPFGRPRP | -0.0419
74 | RRIRDRPPRLPRPRPRPDEYPRP | 0.436
75 | RRIRPRPPRLPRPRPRPPVWPRP | 0.27

Row | Sequence | shrunken log2 fold change
76 | RRIRGRPPRLPRPRPRPYPTPRP | 0.0422
77 | RRIRERPPRLPRPRPRPSYCPRP | -0.715
78 | RRIRVRPPRLPRPRPRPDDHPRP | -0.106
79 | RRIRLRPPRLPRPRPRPMKHPRP | -0.409
80 | RRIRCRPPRLPRPRPRPQHNPRP | -0.771
81 | RRIRARPPRLPRPRPRPFRKPRP | 0.00339
82 | RRIRKRPPRLPRPRPRPYHDPRP | 0.035
83 | RRIRLRPPRLPRPRPRPCPDPRP | -0.136
84 | RRIRPRPPRLPRPRPRPGSVPRP | 0.0512
85 | RRIRGRPPRLPRPRPRPFKLPRP | -0.167
86 | RRIRHRPPRLPRPRPRPSPFPRP | -0.199
87 | RRIRDRPPRLPRPRPRPDGEPRP | -0.0121
88 | RRIRPRPPRLPRPRPRPLMNPRP | -0.47
89 | RRIRNRPPRLPRPRPRPGGEPRP | -0.0266
90 | RRIRQRPPRLPRPRPRPRPIPRP | 0.385
91 | RRIRLRPPRLPRPRPRPPKKPRP | 0.265
92 | RRIRLRPPRLPRPRPRPMFGPRP | 0.109
93 | RRIRARPPRLPRPRPRPNLLPRP | 0.00335
94 | RRIRIRPPRLPRPRPRPRHIPRP | -0.19
95 | RRIRHRPPRLPRPRPRPMMCPRP | -0.0874
96 | RRIRTRPPRLPRPRPRPANQPRP | -0.102
97 | RRIRDRPPRLPRPRPRPYYLPRP | -0.134
98 | RRIRVRPPRLPRPRPRPNKGPRP | -0.47
99 | RRIRERPPRLPRPRPRPEEVPRP | -0.00101
100 | RRIRFRPPRLPRPRPRPNTRPRP | -0.39

Row | Sequence | shrunken log2 fold change
101 | RRIRVRPPRLPRPRPRPQLKPRP | -0.177
102 | RRIRDRPPRLPRPRPRPTKKPRP | -0.0587
103 | RRIRKRPPRLPRPRPRPKSGPRP | 0.0187
104 | RRIRQRPPRLPRPRPRPKWYPRP | -0.118
105 | RRIRTRPPRLPRPRPRPNCQPRP | -0.369
106 | RRIRTRPPRLPRPRPRPPEMPRP | 0.237
107 | RRIRFRPPRLPRPRPRPEDNPRP | -0.00777
108 | RRIRCRPPRLPRPRPRPHAAPRP | 0.31
109 | RRIRTRPPRLPRPRPRPKHDPRP | -0.099
110 | RRIRSRPPRLPRPRPRPYMLPRP | -0.981
111 | RRIRWRPPRLPRPRPRPRRCPRP | 0.224
112 | RRIRIRPPRLPRPRPRPDNKPRP | -0.703
113 | RRIRNRPPRLPRPRPRPPNMPRP | -0.101
114 | RRIRARPPRLPRPRPRPWEKPRP | -0.164
115 | RRIRVRPPRLPRPRPRPTNAPRP | -0.211
116 | RRIRYRPPRLPRPRPRPSMCPRP | -0.24
117 | RRIRIRPPRLPRPRPRPWNTPRP | -0.256
118 | RRIRCRPPRLPRPRPRPSMMPRP | -0.307
119 | RRIRRRPPRLPRPRPRPYTAPRP | -0.447
120 | RRIRSRPPRLPRPRPRPGGSPRP | 0.0707
121 | RRIRRRPPRLPRPRPRPCGMPRP | 0.114
122 | RRIRERPPRLPRPRPRPCVGPRP | -0.278
123 | RRIRKRPPRLPRPRPRPCTPPRP | 0.192
124 | RRIRTRPPRLPRPRPRPANYPRP | -0.145
125 | RRIRIRPPRLPRPRPRPVFPPRP | -0.221

Row | Sequence | shrunken log2 fold change
126 | RRIRHRPPRLPRPRPRPTPQPRP | 0.541
127 | RRIRLRPPRLPRPRPRPKIYPRP | -0.492
128 | RRIRHRPPRLPRPRPRPFLNPRP | -0.169
129 | RRIRGRPPRLPRPRPRPATEPRP | 0.976
130 | RRIRYRPPRLPRPRPRPMQWPRP | -0.00277
131 | RRIRNRPPRLPRPRPRPCWPPRP | 0.274
132 | RRIRTRPPRLPRPRPRPNNKPRP | -0.474
133 | RRIRKRPPRLPRPRPRPYNCPRP | 0.00529
134 | RRIRIRPPRLPRPRPRPMLLPRP | 0.0902
135 | RRIRARPPRLPRPRPRPPQQPRP | 0.758
136 | RRIRMRPPRLPRPRPRPHPPPRP | 1.26
137 | RRIRHRPPRLPRPRPRPTLVPRP | -0.233
138 | RRIRYRPPRLPRPRPRPNGIPRP | -0.02
139 | RRIRARPPRLPRPRPRPDMTPRP | 0.723
140 | RRIRGRPPRLPRPRPRPSCIPRP | 0.423
141 | RRIRYRPPRLPRPRPRPSWFPRP | -0.942
142 | RRIRYRPPRLPRPRPRPFWYPRP | -0.234
143 | RRIRMRPPRLPRPRPRPEFVPRP | 0.383
144 | RRIRSRPPRLPRPRPRPYYAPRP | -0.551
145 | RRIRNRPPRLPRPRPRPDKMPRP | 0.0206
146 | RRIRHRPPRLPRPRPRPTMPPRP | -0.00312
147 | RRIRDRPPRLPRPRPRPWPMPRP | -0.0379
148 | RRIRVRPPRLPRPRPRPLWKPRP | -0.0321
149 | RRIRNRPPRLPRPRPRPSFVPRP | -0.266
150 | RRIRYRPPRLPRPRPRPTFYPRP | -0.803
